To fix the notation:
T1: hVEGF-A (8-109) (human, UniProt P15692 214-315)
T1 construct: residue numbers count on mature VEGF-A; dimer
T1 sequence (looked up): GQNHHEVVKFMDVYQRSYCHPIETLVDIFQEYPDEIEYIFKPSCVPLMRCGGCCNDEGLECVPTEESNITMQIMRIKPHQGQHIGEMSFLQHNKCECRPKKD

B1: VEGF_CKP9.L1.79 (designed binder)
chain: GCQVLQPSWGCKQDSDCLAGCVCHWYQSCG
B2: VEGF_CKP9.L1.2 (designed binder)
chain: GCHLFEPLWGCKQDSDCLAGCVCHWYQSCG
B3: VEGF_CKP9.76 (designed binder)
chain: GCHLLLPLWGCKQDSDCLAGCVCRWYHSCG
B4: VEGF_CKP9.L1.68 (designed binder)
chain: GCDIMQPLWGCKQDSDCLAGCVCHWYQSCG
B5: VEGF_CKP9.96 (designed binder)
chain: GCKLFEPLWGCKQDSDCLAGCVCRWYESCG
B6: VEGF_CKP9.69 (designed binder)
chain: GCALLQPLWGCKQDSDCLAGCVCRWYNSCG
B7: EETI-II (peptide)
chain: GCPRILMRCKQDSDCLAGCVCGPNGFCG
B8: VEGF_CKP9.L1.64 (designed binder)
chain: GCNVLLPLWGCKQDSDCLAGCVCHWYQSCG
B9: VEGF_CKP9.9 (designed binder)
chain: GCQLLEPMWGCKQDSDCLAGCVCHWYNSCG
B10: VEGF_CKP9.L5.18 (designed binder)
chain: GCQLMQPFWGCKQDSDCLAGCVCHWYQSCG
B11: VEGF_CKP9.54.12 (designed binder)
chain: GCNIMLPFWGCGPELNCLAGCVCQYYQSCG
B12: VEGF_CKP9.14 (designed binder)
chain: GCKLLQPMWGCKQDSDCLAGCVCRWYQSCG
B13: VEGF_CKP5 (designed binder)
chain: GCPAIQNWKEHPCKQDSDCLAGCVCSWWPSLCG
B14: VEGF_CKP9.L1.57 (designed binder)
chain: GCNPMLPFWGCKQDSDCLAGCVCHWYQSCG
B15: VEGF_CKP9.72 (designed binder)
chain: GCRLLEPSWGCKQDSDCLAGCVCQWYQSCG
B16: VEGF_CKP9.L1.76 (designed binder)
chain: GCDLMQPLWGCKQDSDCLAGCVCHWYQSCG
B17: VEGF_CKP9.L5.43 (designed binder)
chain: GCQLMQPFWGCKQDSDCLAGCVCRWYHSCG
B18: VEGF_CKP9.11 (designed binder)
chain: GCDRMQPYWGCKQDSDCLAGCVCQWYKSCG
B19: VEGF_CKP9.54.16 (designed binder)
chain: GCNIMLPFWGCGVDYLCLAGCVCQYYQSCG
B20: VEGF_CKP9.3 (designed binder)
chain: GCQISQPFWGCKQDSDCLAGCVCHFYNSCG
B21: VEGF_CKP9.71 (designed binder)
chain: GCQLLQPLWGCKQDSDCLAGCVCRWYQSCG
B22: VEGF_CKP9.2 (designed binder)
chain: GCDVLQPFWGCKQDSDCLAGCVCHWYQSCG
B23: VEGF_CKP8 (designed binder)
chain: GCQLMHPFWGCKQDSDCLAGCVCHWYRSCG
B24: VEGF_CKP9.22 (designed binder)
chain: GCQRTQPFWGCKQDSDCLAGCVCRWYQSCG
B25: VEGF_CKP9.L5.7 (designed binder)
chain: GCQLMQPFWGCKQDSDCLAGCVCRWYNSCG
B26: VEGF_CKP9.54.14 (designed binder)
chain: GCNIMLPFWGCQADYACLAGCVCQYYQSCG
B27: VEGF_CKP9.L1.7 (designed binder)
chain: GCQVMRPFWGCKQDSDCLAGCVCHWYQSCG
B28: VEGF_CKP9.L1.8 (designed binder)
chain: GCQVMQPAWGCKQDSDCLAGCVCHWYQSCG
B29: VEGF_CKP9.L1.78 (designed binder)
chain: GCNPMLPLWGCKQDSDCLAGCVCHWYQSCG
B30: VEGF_CKP4 (designed binder)
chain: GCKKWQWWYMCKQDSDCLAGCVCYPWTECG
B31: VEGF_CKP9.54.1 (designed binder)
chain: GCNIMLPFWGCGQSFECLAGCVCQYYQSCG
B32: VEGF_CKP9.51 (designed binder)
chain: GCNLMHPFWGCKQDSDCLAGCVCHWYQSCG
B33: VEGF_CKP9.L1.19 (designed binder)
chain: GCHRLQPLWGCKQDSDCLAGCVCHWYQSCG
B34: VEGF_CKP9.47 (designed binder)
chain: GCKIMQPLWGCKQDSDCLAGCVCLWYDSCG
B35: VEGF_CKP9.54.2 (designed binder)
chain: GCNIMLPFWGCGLDYDCLAGCVCQYYQSCG

In this assay the target is T1, hVEGF-A (8-109). The assay is described as follows: spot phage ELISA. On the technique in general: An ELISA detects its analyte on a solid surface through an enzyme-linked reagent.
B1: the ELISA was determined as 1.2 and the S/N was 10.
For B2 the same measures were 1.6 and 12.5.
Turning to B3, the ELISA was 1.3 and the S/N stood at 15.5.
For B4 the same measures were 2 and 23.2.
On to B5, for which the ELISA came to 1.2 and the S/N is 18.4.
For B6 the same measures were 1 and 14.3.
In the same order, the values of B7 are 0.01 and 1.11.
For B8 the same measures were 2.3 and 19.9.
In the case of B9, the ELISA was 1.1 and the S/N came out at 19.7.
For B10 the same measures were 1.6 and 20.4.
In the same order, the values of B11 are 2.4 and 38.8.
In the same order, the values of B12 are 2 and 30.1.
In turn, B13 displayed an ELISA of 1.9 and a S/N of 28.4.
In the same order, the values of B14 are 3.7 and 31.8.
Molecule B15 came in with an ELISA of 0.6 and a S/N of 10.
In the same order, the values of B16 are 2.5 and 17.4.
B17: the ELISA is 0.9 and the S/N amounted to 13.6.
For B18 the same measures were 1.1 and 14.1.
In the same order, the values of B19 are 2.4 and 30.8.
With B20, the ELISA was found to be 1.6 and the S/N stood at 24.5.
For B21 the same measures were 1 and 16.5.
In the same order, the values of B22 are 2.4 and 31.1.
In the same order, the values of B23 are 3.9 and 59.4.
Take B24: the ELISA was 1.2 and the S/N worked out at 17.2.
In the same order, the values of B25 are 1.4 and 18.9.
The molecule B26 showed an ELISA of 2.5 and a S/N of 23.5.
In turn, B27 registered an ELISA of 1.5 and a S/N of 8.9.
For B28 the same measures were 1.2 and 12.8.
Turning to B29, the ELISA amounted to 3 and the S/N was 25.1.
The molecule B30 showed an ELISA of 2.6 and a S/N of 35.3.
For B31 the same measures were 2.4 and 29.9.
For B32 the same measures were 1 and 11.
Molecule B33 yielded an ELISA of 1.4 and a S/N of 11.6.
In turn, B34 returned an ELISA of 1 and a S/N of 14.6.
In the same order, the values of B35 are 0.1 and 26.

The values are drawn from US20230174596A1 (published 2023).
